Test results: patent US20220089683A1 (ACCELERON PHARMA, published 2022)

B1: GDF11 (ligand, UniProt O95390 299-407, looked up)
chain: NLGLDCDEHSSESRCCRYPLTVDFEAFGWDWIIAPKRYKANYCSGQCEYMFMQKYPHTHLVQQANPRGSAGPCCTPTKMSPINMLYFNDKQQIIYGKIPGMVVDRCGCS
notes: also called BMP11

Tests used:
ActRIIA-mFc = molecular target: T1, ActRIIA-mFc (human, UniProt P27037 21-135); assay: SPR (Biacore), ligand amine-coupled on CM5 chip, fusion protein loaded in solution
T1 construct: also called hActRIIA-mFc; not shown: mouse Fc domain
Method: GDF-11 or activin A were immobilized on a Biacore™ CM5 chip using standard amine-coupling procedure. ActRIIA-hFc and ActRIIA-mFc proteins were loaded onto the system, and binding was measured.

activin B = molecular target: T2, activin B (UniProt P09529 293-407); assay: SPR (Biacore)
T2 sequence (looked up): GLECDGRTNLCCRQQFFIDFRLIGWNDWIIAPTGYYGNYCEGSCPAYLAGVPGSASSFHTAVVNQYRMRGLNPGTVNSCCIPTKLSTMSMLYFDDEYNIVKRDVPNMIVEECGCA

activin A = molecular target: T3, activin A (UniProt P08476 311-426); assay: SPR (Biacore)
T3 sequence (looked up): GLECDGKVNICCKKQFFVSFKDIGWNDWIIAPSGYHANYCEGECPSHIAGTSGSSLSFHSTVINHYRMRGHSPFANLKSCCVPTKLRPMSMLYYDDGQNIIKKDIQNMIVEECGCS

GDF11 = molecular target: B1; assay: SPR (Biacore)

T1 sequence (P27037 21-135): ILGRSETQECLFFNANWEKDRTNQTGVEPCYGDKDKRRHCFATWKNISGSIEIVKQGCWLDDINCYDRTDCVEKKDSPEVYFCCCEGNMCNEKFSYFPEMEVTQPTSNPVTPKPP

Binder	binding result (ActRIIA-mFc)	Kd (activin B) [pM]	Kd (activin A) [pM]	Kd (GDF11) [pM]
B1	binds	–	–	–
ActRIIB(20-134)-hFc (Fc fusion, also called ActRIIB-hFc; hActRIIB-hFc) GRGEAETRECIYYNANWELERTNQSGLERCEGEQDKRLHCYASWRNSSGTIELVKKGCWLDDFNCYDRQECVATEENPQVYFCCCEGNFCNERFTHLPEAGGPEVTYEPPPTAPTGGGTHTCPPCPAPELLGGPSVFLFPPKPKDTLMISRTPEVTCVVVDVSHEDPEVKFNWYVDGVEVHNAKTKPREEQYNSTYRVVSVLTVLHQDWLNGKEYKCKVSNKALPVPIEKTISKAKGQPREPQVYTLPPSREEMTKNQVSLTCLVKGFYPSDIAVEWESNGQPENNYKTTPPVLDSDGSFFLYSKLTVDKSRWQQGNVFSCSVMHEALHNHYTQKSLSLSPGK	–	12	16	36
